B1: FBXO39 (parent)
chain: RVFKARIYTNRYETNEEDKTLQEI
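Note: lentivirally expressed fusions sorted by FACS into six bins by GFP to DsRed ratio, PSI derived from sequencing read proportions per bin multiplied by bin number.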

Variants of B1 are the subject of this data set. Nature of the data set: protein stability index of a GFP-peptide fusion (GPS, HEK-293T) (PSI 1-6); higher = more stable. The following applies: c terminus: a fixed tail appended.
Consider RVFKARIYINRYETNEEDKTLQEI, for which the protein stability index was 2.21. As to RVFKARIYSNRYETNEEDKTLQEI, the protein stability index amounted to 2.18. In the case of RVFKARIYQNRYETNEEDKTLQEI it was 2.73; in that of RVFKARIYKNRYETNEEDKTLQEI, 3.08; in that of RVFKARIYVNRYETNEEDKTLQEI, 2.32. Then RVFKARIYENRYETNEEDKTLQEI, with 3.24; and RVFKARIYYNRYETNEEDKTLQEI, with 2.16; and RVFKARIYGNRYETNEEDKTLQEI, with 2.49. In the case of RVFKARIYWNRYETNEEDKTLQEI it was 1.92; in that of RVFKARIYRNRYETNEEDKTLQEI, 3.04. Consider RVFKARIYHNRYETNEEDKTLQEI, for which the protein stability index worked out at 2.47. On to RVFKARIYMNRYETNEEDKTLQEI, for which the protein stability index worked out at 3.24. Then RVFKARIYANRYETNEEDKTLQEI, with 3.18; and RVFKARIYFNRYETNEEDKTLQEI, with 1.82. As to RVFKARIYDNRYETNEEDKTLQEI, the protein stability index stood at 3.38. In the case of RVFKARIYPNRYETNEEDKTLQEI it was 3.15. For the variant RVFKARIYNNRYETNEEDKTLQEI, the protein stability index is 2.87.

For RVFKARIYLNRYETNEEDKTLQEI, the protein stability index was determined as 2.54. In the case of RVFKARIYTNRYETNEYDKTLQEI, the protein stability index was determined as 2.72.

As for RVFKARIYTNRYETNEMDKTLQEI, the protein stability index stood at 1.89.

Take RVFKARIYTNRYETNECDKTLQEI: the protein stability index was 2.03. In the case of RVFKARIYTNRYETNEQDKTLQEI, the protein stability index turned out to be 2.33.

As to RVFKARIYTNRYETNETDKTLQEI, the protein stability index amounted to 2.83.

With RVFKARIYTNRYETNEWDKTLQEI, the protein stability index was determined as 2.27. In the case of RVFKARIYTNRYETNEFDKTLQEI it was 1.63; in that of RVFKARIYTNRYETNEIDKTLQEI, 1.59; in that of RVFKARIYTNRYETNERDKTLQEI, 2.43.

Regarding RVFKARIYTNRYETNEPDKTLQEI, the protein stability index stood at 2.41. In the case of RVFKARIYTNRYETNEGDKTLQEI it was 1.4; in that of RVFKARIYTNRYETNEKDKTLQEI, 2.24; in that of RVFKARIYTNRYETNEHDKTLQEI, 2.02. Then RVFKARIYTNRYETNENDKTLQEI, with 1.98. Then RVFKARIYTNRYETNELDKTLQEI, with 2.41. Regarding RVFKARIYTNRYETNEDDKTLQEI, the protein stability index amounted to 3.12. On to RVFKARIYTNRYETNESDKTLQEI, for which the protein stability index worked out at 2.1. For the variant RVFKARIYTNPYETNEEDKTLQEI, the protein stability index was found to be 3.36.

As to RVFKARIYTNLYETNEEDKTLQEI, the protein stability index was found to be 2.59. Then RVFKARIYTNQYETNEEDKTLQEI, with 3.2; and RVFKARIYTNVYETNEEDKTLQEI, with 2.18. In the case of RVFKARIYTNWYETNEEDKTLQEI it was 2.19. Then RVFKARIYTNAYETNEEDKTLQEI, with 2.01; and RVFKARIYTNCYETNEEDKTLQEI, with 2.05.

For RVFKARIYTNHYETNEEDKTLQEI, the protein stability index turned out to be 2.34. Then RVFKARIYTNSYETNEEDKTLQEI, with 3.38; and RVFKARIYTNNYETNEEDKTLQEI, with 2.53; and RVFKARIYTNYYETNEEDKTLQEI, with 2.5.

Consider RVFKARIYTNMYETNEEDKTLQEI, for which the protein stability index was found to be 2.93.

Turning to RVFKARIYTNDYETNEEDKTLQEI, the protein stability index amounted to 3.23. In the case of RVFKARIYTNEYETNEEDKTLQEI it was 3.57; in that of RVFKARIYTNIYETNEEDKTLQEI, 2.46.

As to RVFKARIYTNGYETNEEDKTLQEI, the protein stability index came to 3.36. Turning to RVFKARIYTNTYETNEEDKTLQEI, the protein stability index turned out to be 3.75.

As to RVFKARIYTNKYETNEEDKTLQEI, the protein stability index was 2.88.

In the case of RVFKARIYTERYETNEEDKTLQEI, the protein stability index was 3.31. Then RVFKARIYTKRYETNEEDKTLQEI, with 3.01. As to RVFKARIYTIRYETNEEDKTLQEI, the protein stability index was 2.73. In the case of RVFKARIYTSRYETNEEDKTLQEI it was 3.06; in that of RVFKARIYTFRYETNEEDKTLQEI, 1.93. In the case of RVFKARIYTGRYETNEEDKTLQEI it was 2.75; in that of RVFKARIYTPRYETNEEDKTLQEI, 2.21. Then RVFKARIYTCRYETNEEDKTLQEI, with 2.29. In the case of RVFKARIYTQRYETNEEDKTLQEI, the protein stability index was determined as 3.36. In the case of RVFKARIYTDRYETNEEDKTLQEI it was 2.61. In the case of RVFKARIYTMRYETNEEDKTLQEI it was 3.04; in that of RVFKARIYTTRYETNEEDKTLQEI, 2.45; in that of RVFKARIYTWRYETNEEDKTLQEI, 2.2.

For RVFKARIYTARYETNEEDKTLQEI, the protein stability index came to 2.31.

On to RVFKARIYTRRYETNEEDKTLQEI, for which the protein stability index is 2.6. In the case of RVFKARIYTVRYETNEEDKTLQEI it was 2.15. In the case of RVFKARIYTLRYETNEEDKTLQEI it was 2.11; in that of RVFKARIYTHRYETNEEDKTLQEI, 2.82; in that of RVFKARIYTNRYETNEEPKTLQEI, 2.56.

As to RVFKARIYTNRYETNEENKTLQEI, the protein stability index came to 2.25. For the variant RVFKARIYTNRYETNEEHKTLQEI, the protein stability index came out at 2.16. With RVFKARIYTNRYETNEEFKTLQEI, the protein stability index was determined as 1.67. Then RVFKARIYTNRYETNEEKKTLQEI, with 2.7; and RVFKARIYTNRYETNEESKTLQEI, with 1.71; and RVFKARIYTNRYETNEEMKTLQEI, with 2.22. In the case of RVFKARIYTNRYETNEEYKTLQEI it was 2.78; in that of RVFKARIYTNRYETNEEWKTLQEI, 2.18; in that of RVFKARIYTNRYETNEELKTLQEI, 2.46.

RVFKARIYTNRYETNEEQKTLQEI: the protein stability index came out at 2.78. In the case of RVFKARIYTNRYETNEEAKTLQEI it was 3.19. Then RVFKARIYTNRYETNEERKTLQEI, with 2.38; and RVFKARIYTNRYETNEEVKTLQEI, with 2.4.

RVFKARIYTNRYETNEEIKTLQEI: the protein stability index worked out at 2.68. Consider RVFKARIYTNRYETNEETKTLQEI, for which the protein stability index stood at 2.36. Then RVFKARIYTNRYETNEEGKTLQEI, with 2.53.

With RVFKARIYTNRYETNEEEKTLQEI, the protein stability index was determined as 2.48.

With RVFKARIYTNRYETNEECKTLQEI, the protein stability index was 2.33.

For RVFKARIYTNRYETNEEDETLQEI, the protein stability index amounted to 3.84. In the case of RVFKARIYTNRYETNEEDCTLQEI it was 3.04. In the case of RVFKARIYTNRYETNEEDNTLQEI it was 2.83; in that of RVFKARIYTNRYETNEEDLTLQEI, 2.44.

The record behind these values is the supplement of paper PMC10567573.
